{"source": "the RNAGym collection of RNA variant scans (doi:10.1073/pnas.2313332121)", "parents": {"B1": {"name": "TPR 5TU (parent)", "chain": "GGAUCUUCUCGAUCUAACAAAAAAGACAAAUCUGCCACAAAGCUUGAGAGCAUCUUCGGAUGCAGAGGCGGCAGCCUUCGGUGGCGCGAUAGCGCCAACGUUCUCAACUAUGACACGCAAAACGCGUGCUCCGUUGAAUGGAGUUUAUCAUG"}}, "note": "Variants at the floor of the assay were thinned out."}
{"variants_of": "B1", "assay": "polymerase ribozyme fitness, log enrichment relative to wild type (log ratio); higher = more active; in vitro selection for triplet polymerase activity", "outline": "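Both subunits of a heterodimeric triplet polymerase ribozyme were given their own mutant library, built by PCR and transcribed. Each library was annealed with a biotinylated primer, the partner subunit and triplets, incubated frozen at −7 °C, and its extended constructs gel-excised, captured on streptavidin beads and amplified by RT-PCR, all in one round done in triplicate. Fitness is the logarithm of genotype enrichment relative to wild-type enrichment, with replicates averaged by inverse-variance weighting. That logarithm is base 2, and Illumina-sequenced genotypes needed ≥10 input reads and ≥1 read per output.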"}
{"variant": "G74U C85G", "polymerase ribozyme fitness (log ratio)": "≤ -4.2"}
{"variant": "C76U C87U G140U U146C", "polymerase ribozyme fitness (log ratio)": -3.72}
{"variant": "C75G C85U A106C A115G G141U", "polymerase ribozyme fitness (log ratio)": "≤ -4.2"}
{"variant": "C76U G84A U101A", "polymerase ribozyme fitness (log ratio)": -0.872}
{"variant": "C75A C76U G86U A106U G126A U148C C149A", "polymerase ribozyme fitness (log ratio)": "≤ -4.2"}
{"variant": "C76U G88U A91C C93U G140C", "polymerase ribozyme fitness (log ratio)": "≤ -4.2"}
{"variant": "C76U C99A", "polymerase ribozyme fitness (log ratio)": -1.37}
{"variant": "C76A C131G", "polymerase ribozyme fitness (log ratio)": -3.98}
{"variant": "C76A A122U", "polymerase ribozyme fitness (log ratio)": 0.592}
{"variant": "C76A A122G", "polymerase ribozyme fitness (log ratio)": -0.466}
{"variant": "G74A A89C", "polymerase ribozyme fitness (log ratio)": "≤ -4.2"}
{"variant": "U77G U82A A110C G136A A137U A138U", "polymerase ribozyme fitness (log ratio)": "≤ -4.2"}
{"variant": "G74A G84A A89G", "polymerase ribozyme fitness (log ratio)": "≤ -4.2"}
{"variant": "C75U A122G G124A C149U", "polymerase ribozyme fitness (log ratio)": -1.15}
{"variant": "C76A C99A", "polymerase ribozyme fitness (log ratio)": -4.05}
{"variant": "C76A G84A", "polymerase ribozyme fitness (log ratio)": -0.957}
{"variant": "U78C C93U C99A A115C", "polymerase ribozyme fitness (log ratio)": -4.13}
{"variant": "C75G C85G A147U", "polymerase ribozyme fitness (log ratio)": "≤ -4.2"}
{"variant": "C76U G84A A119U U145G", "polymerase ribozyme fitness (log ratio)": -2.68}
{"variant": "C76A A98U", "polymerase ribozyme fitness (log ratio)": -0.0442}
{"variant": "U78G A91C C131G", "polymerase ribozyme fitness (log ratio)": "≤ -4.2"}
{"variant": "C75U G94C A142C", "polymerase ribozyme fitness (log ratio)": -2.58}
{"variant": "C75G C76G G81U C95G", "polymerase ribozyme fitness (log ratio)": "≤ -4.2"}
{"variant": "U77G C93A G143A U146C", "polymerase ribozyme fitness (log ratio)": "≤ -4.2"}
{"variant": "G74A A91U G117U G141U", "polymerase ribozyme fitness (log ratio)": "≤ -4.2"}
{"variant": "C76U C95U", "polymerase ribozyme fitness (log ratio)": 0.961}
{"variant": "C75U G94C A122G U145A", "polymerase ribozyme fitness (log ratio)": -3.35}
{"variant": "A73U C96U C108G G141A U146G", "polymerase ribozyme fitness (log ratio)": "≤ -4.2"}
{"variant": "C76U A97G G100A A142G", "polymerase ribozyme fitness (log ratio)": "≤ -4.2"}
{"variant": "C76A U82G C96U", "polymerase ribozyme fitness (log ratio)": -0.697}
{"variant": "C76A G128C", "polymerase ribozyme fitness (log ratio)": -3.67}
{"variant": "U77G C93U G117C", "polymerase ribozyme fitness (log ratio)": "≤ -4.2"}
{"variant": "U78A G80A U82A A142U", "polymerase ribozyme fitness (log ratio)": "≤ -4.2"}
{"variant": "C76A C123U U134A", "polymerase ribozyme fitness (log ratio)": -1.5}
{"variant": "U78A C95G U127C U130G U139G", "polymerase ribozyme fitness (log ratio)": "≤ -4.2"}
{"variant": "C76U A115C", "polymerase ribozyme fitness (log ratio)": -0.614}
{"variant": "C75G C85U C87A A113G", "polymerase ribozyme fitness (log ratio)": "≤ -4.2"}
{"variant": "U77G A89U C95A C114U C125G", "polymerase ribozyme fitness (log ratio)": "≤ -4.2"}
{"variant": "C76U G84C", "polymerase ribozyme fitness (log ratio)": -1.35}
{"variant": "C76U G84U", "polymerase ribozyme fitness (log ratio)": -0.883}
{"variant": "C76A C85U U145C", "polymerase ribozyme fitness (log ratio)": -0.371}
{"variant": "A73U G92U G141A U145A", "polymerase ribozyme fitness (log ratio)": -3.24}
{"variant": "C76U C85U C99G", "polymerase ribozyme fitness (log ratio)": -1.05}
{"variant": "U77G A107U U144C U145C", "polymerase ribozyme fitness (log ratio)": "≤ -4.2"}
{"variant": "C75U G80C A91G A97U A122G", "polymerase ribozyme fitness (log ratio)": "≤ -4.2"}
{"variant": "A73U C99A C103G C114U C123G", "polymerase ribozyme fitness (log ratio)": "≤ -4.2"}
{"variant": "C76A C96U G140U", "polymerase ribozyme fitness (log ratio)": -3.67}
{"variant": "C76U C93G C132U", "polymerase ribozyme fitness (log ratio)": -3.96}
{"variant": "C76G G94C", "polymerase ribozyme fitness (log ratio)": "≤ -4.2"}
{"variant": "C76A C87U A142G", "polymerase ribozyme fitness (log ratio)": -1.46}
{"variant": "C75A G83A A98U", "polymerase ribozyme fitness (log ratio)": -4.16}
{"variant": "C75U C79A", "polymerase ribozyme fitness (log ratio)": "≤ -4.2"}
{"variant": "C76A G83C A137G", "polymerase ribozyme fitness (log ratio)": -3.62}
{"variant": "C75U G80C A107U", "polymerase ribozyme fitness (log ratio)": "≤ -4.2"}
{"variant": "C76U U82G G83A C105A U134C U146A U148G", "polymerase ribozyme fitness (log ratio)": "≤ -4.2"}
{"variant": "G74C A150C", "polymerase ribozyme fitness (log ratio)": "≤ -4.2"}
{"variant": "U78G C85U G126U", "polymerase ribozyme fitness (log ratio)": "≤ -4.2"}
{"variant": "C76G G83U C103U", "polymerase ribozyme fitness (log ratio)": "≤ -4.2"}
{"variant": "U78A C93A G124U", "polymerase ribozyme fitness (log ratio)": "≤ -4.2"}
{"variant": "C75G G88A U146G", "polymerase ribozyme fitness (log ratio)": "≤ -4.2"}
{"variant": "A73U G83A", "polymerase ribozyme fitness (log ratio)": -1.97}
{"variant": "C75U C96G", "polymerase ribozyme fitness (log ratio)": 0.716}
{"variant": "U77G C93U G100U", "polymerase ribozyme fitness (log ratio)": "≤ -4.2"}
{"variant": "U77A U78C G94U C95G C105U", "polymerase ribozyme fitness (log ratio)": "≤ -4.2"}
{"variant": "C75G U134G", "polymerase ribozyme fitness (log ratio)": -4}
{"variant": "C76G A91C", "polymerase ribozyme fitness (log ratio)": "≤ -4.2"}
{"variant": "C75G A142U", "polymerase ribozyme fitness (log ratio)": -3.7}
{"variant": "C76A U145C", "polymerase ribozyme fitness (log ratio)": -0.484}
{"variant": "C75U G84U", "polymerase ribozyme fitness (log ratio)": -2.45}
{"variant": "U77G C85U C108A A113G", "polymerase ribozyme fitness (log ratio)": "≤ -4.2"}
{"variant": "C76A C103U U134A", "polymerase ribozyme fitness (log ratio)": -4.15}
{"variant": "A73U G81U A106G A115G A119U A147C", "polymerase ribozyme fitness (log ratio)": "≤ -4.2"}
{"variant": "A73U C93U G136A", "polymerase ribozyme fitness (log ratio)": -1.59}
{"variant": "C76A A138U", "polymerase ribozyme fitness (log ratio)": -4.05}
{"variant": "U77C C87G A142G", "polymerase ribozyme fitness (log ratio)": "≤ -4.2"}
{"variant": "C76G C87A U111A", "polymerase ribozyme fitness (log ratio)": "≤ -4.2"}
{"variant": "U78C A142G", "polymerase ribozyme fitness (log ratio)": -1.33}
{"variant": "U78C A142U", "polymerase ribozyme fitness (log ratio)": -1.72}
{"variant": "U77C G94C", "polymerase ribozyme fitness (log ratio)": -3.48}
{"variant": "C76A C129G G136A", "polymerase ribozyme fitness (log ratio)": -3.95}
{"variant": "C76U U82C A89G", "polymerase ribozyme fitness (log ratio)": -1.3}
{"variant": "C76U U82G C87U", "polymerase ribozyme fitness (log ratio)": 0.25}
{"variant": "C75U A137C", "polymerase ribozyme fitness (log ratio)": -3.47}
